Results on one substance are retold here after patent US20100055125A1.

In the assay the target is clotting factor VIII (human) (UniProt P00451). In words: cell-based or functional assay.
Sequence of UniProt P00451 (P00451 20-2351): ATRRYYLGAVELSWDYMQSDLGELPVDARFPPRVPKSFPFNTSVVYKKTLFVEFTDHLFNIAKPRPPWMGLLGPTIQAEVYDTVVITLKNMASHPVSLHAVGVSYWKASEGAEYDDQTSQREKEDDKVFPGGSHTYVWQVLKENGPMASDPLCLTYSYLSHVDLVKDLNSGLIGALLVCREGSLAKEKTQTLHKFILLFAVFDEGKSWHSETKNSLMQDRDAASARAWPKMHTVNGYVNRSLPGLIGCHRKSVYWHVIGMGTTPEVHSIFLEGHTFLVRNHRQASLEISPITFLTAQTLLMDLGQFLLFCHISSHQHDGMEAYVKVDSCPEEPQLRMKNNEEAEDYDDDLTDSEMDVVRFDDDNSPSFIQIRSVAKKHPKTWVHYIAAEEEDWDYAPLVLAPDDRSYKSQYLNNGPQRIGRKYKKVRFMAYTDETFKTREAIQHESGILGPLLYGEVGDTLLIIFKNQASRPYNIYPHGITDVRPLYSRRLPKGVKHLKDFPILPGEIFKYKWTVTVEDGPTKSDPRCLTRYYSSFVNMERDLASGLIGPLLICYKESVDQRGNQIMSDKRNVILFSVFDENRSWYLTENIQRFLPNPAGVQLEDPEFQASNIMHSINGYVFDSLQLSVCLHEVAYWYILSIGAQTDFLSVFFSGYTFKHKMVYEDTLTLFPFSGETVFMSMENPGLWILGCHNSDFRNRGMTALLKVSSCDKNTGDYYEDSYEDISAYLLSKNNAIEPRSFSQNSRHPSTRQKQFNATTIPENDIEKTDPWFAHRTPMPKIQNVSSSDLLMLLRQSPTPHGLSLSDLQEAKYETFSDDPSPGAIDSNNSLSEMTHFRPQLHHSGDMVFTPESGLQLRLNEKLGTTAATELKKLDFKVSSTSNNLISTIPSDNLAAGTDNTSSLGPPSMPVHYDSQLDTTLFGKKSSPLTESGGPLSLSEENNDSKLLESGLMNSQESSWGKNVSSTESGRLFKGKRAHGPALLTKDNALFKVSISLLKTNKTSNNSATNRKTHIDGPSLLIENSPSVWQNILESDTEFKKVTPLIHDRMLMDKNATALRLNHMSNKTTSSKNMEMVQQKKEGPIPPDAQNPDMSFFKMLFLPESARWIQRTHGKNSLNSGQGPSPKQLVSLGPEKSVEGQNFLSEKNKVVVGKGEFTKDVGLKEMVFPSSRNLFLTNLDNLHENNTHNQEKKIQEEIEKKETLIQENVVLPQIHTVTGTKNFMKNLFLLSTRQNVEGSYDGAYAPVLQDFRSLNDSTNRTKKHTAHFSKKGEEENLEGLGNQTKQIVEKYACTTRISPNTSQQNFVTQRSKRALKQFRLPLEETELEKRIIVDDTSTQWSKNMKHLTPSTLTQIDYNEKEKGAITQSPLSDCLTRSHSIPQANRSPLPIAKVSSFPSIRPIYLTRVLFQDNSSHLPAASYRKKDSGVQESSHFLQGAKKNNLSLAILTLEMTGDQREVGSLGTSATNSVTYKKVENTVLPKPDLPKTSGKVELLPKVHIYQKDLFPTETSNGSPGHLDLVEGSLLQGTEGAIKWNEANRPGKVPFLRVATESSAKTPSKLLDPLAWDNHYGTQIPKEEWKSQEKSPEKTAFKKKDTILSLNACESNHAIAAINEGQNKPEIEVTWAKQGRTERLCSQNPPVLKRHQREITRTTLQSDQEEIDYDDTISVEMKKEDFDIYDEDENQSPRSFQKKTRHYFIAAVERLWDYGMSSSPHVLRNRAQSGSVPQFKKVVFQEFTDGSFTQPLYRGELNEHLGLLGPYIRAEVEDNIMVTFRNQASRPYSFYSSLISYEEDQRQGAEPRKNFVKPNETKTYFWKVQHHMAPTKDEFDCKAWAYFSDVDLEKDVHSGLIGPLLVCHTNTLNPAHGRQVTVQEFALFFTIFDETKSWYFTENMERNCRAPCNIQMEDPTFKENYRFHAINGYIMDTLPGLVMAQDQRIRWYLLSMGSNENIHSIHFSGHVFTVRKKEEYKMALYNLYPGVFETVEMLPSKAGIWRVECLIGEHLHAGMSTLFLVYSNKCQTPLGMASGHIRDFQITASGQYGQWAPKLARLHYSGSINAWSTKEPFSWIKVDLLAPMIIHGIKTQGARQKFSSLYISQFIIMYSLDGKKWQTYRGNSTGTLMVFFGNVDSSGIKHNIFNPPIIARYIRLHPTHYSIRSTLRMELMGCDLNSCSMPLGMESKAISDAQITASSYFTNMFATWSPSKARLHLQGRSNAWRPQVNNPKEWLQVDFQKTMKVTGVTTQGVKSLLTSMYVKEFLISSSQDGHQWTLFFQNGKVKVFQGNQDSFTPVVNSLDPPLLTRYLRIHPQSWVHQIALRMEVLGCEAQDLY

“murine monoclonal anti-FVIII antibody ESH8 (American Diagnostica)” displayed an FVIII activity of normal plasma after adding ESH8 (% of its initial activity) of 32.6 and an FVIII activity of normal plasma after adding ESH8 (% of the initial activity) of 23.5.
